System: cell proliferation
Assay: Recombinant human EGF biological activity assay (cell proliferation method/MTT colorimetric method), Chinese Pharmacopoeia 2015 General Rule 3528
Assay type: cell-based
Procedure: According to the Pharmacopoeia method, the biological activity of the rHSA/CBD-EGF complex was measured at the cellular level [2015 edition of the Chinese Pharmacopoeia Three General Rules 3528: Recombinant human epidermal growth factor biological activity assay (cell proliferation method/MTT colorimetric method)].

## rHSA/CBD: human CBD (vWF A3 domain) ligated to C-terminal of HSA through connecting peptide (GGGS)2; SEQ ID NO. 3
  Biological specific activity: None

Reference: US20250186598A1, “RECOMBINANT HUMAN SERUM ALBUMIN-COLLAGEN BINDING DOMAIN FUSION PROTEIN FOR TUMOR-SPECIFIC TARGETING MATRIX, AND USE THEREOF” (Huatong Forturn (China) Co., Ltd., priority 2020, published 2025)
